From publication doi:10.1101/517573 come the findings set out here.

The target of the assay is hSgt2 M233D (Homo sapiens) (UniProt O43765). Nature of the assay: pull-down.
Chain of UniProt O43765 (O43765 213-313 M233D): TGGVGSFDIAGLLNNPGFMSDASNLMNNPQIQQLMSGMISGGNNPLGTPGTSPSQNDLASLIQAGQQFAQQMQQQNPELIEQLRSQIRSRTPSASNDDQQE

B1: MBP-Sbh1 full length (natural protein)
chain: MSSPTPPGGQRTLQKRKQGSSQKVAASAPKKNTNSNNSILKIYSDEATGLRVDPLVVLFLAVGFIFSVVALHVISKVAGKLF
For the molecule B1, the percent reduction of binding against wild type was found to be 36%.
